US20070065430A1 (GlaxoSmithKline, published 2007)
Where a chain is given by its changes, count along the chain named. One block for each binder: values may come before it.

Legend:
[1] = molecular target: T1, GST-human NOGO-A56 fusion protein (amino acids 586-785 of human NOGO-A) (human, UniProt Q9NQC3 586-786); test: ELISA; GST-human NOGO-A56 coated at 1 µg/ml, anti-human kappa peroxidase detection
T1 construct: Expressed in E. coli BL21 and purified on glutathione-sepharose; Coated on plates for the ELISAs and dried onto wells for the neurite outgrowth assay; also called GST-NOGO-A56; GST-Nogo5&6
T1 sequence: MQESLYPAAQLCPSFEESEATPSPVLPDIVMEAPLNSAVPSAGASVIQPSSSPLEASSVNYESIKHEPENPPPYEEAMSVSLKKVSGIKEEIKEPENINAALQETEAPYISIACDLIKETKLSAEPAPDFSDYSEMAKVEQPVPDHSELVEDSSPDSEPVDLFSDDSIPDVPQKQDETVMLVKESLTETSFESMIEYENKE
Experimental: GST-human NOGO-A56 at 1 μg/ml in 50 mM Tris pH9.5 was coated onto Nunc Immunosorp plates (100 μl per well) at 4° C. overnight. Wells were rinsed once with TBS+0.05% tween then incubated with 2% BSA in TBS+0.05% tween to block non-specific binding sites at room temperature for Ihour. Antibodies were diluted in TBS+0.05% tween+2% BSA to 10 μg/ml and ½ dilutions made from this. Antibodies were added to wells in duplicate and incubated at room temperature for 1 hour. Wells were washed three times with TBS+0.05% tween then incubated with anti-human kappa peroxidase conjugate (1:2000) for 1 hour. Washed three times with TBS+0.05% tween and then incubated with 100 μl OPD peroxidase substrate (Sigma) per well for 10 minutes. The colour reaction was stopped by the addition of 25 μl concentrated H₂SO₄. Optical density at 490 nm was measured using a plate reader. Background values read from wells with no antibody were subtracted.
FIGS. 35A to C illustrates the dose-dependent binding of humanised antibody H1L11 in comparison with the chimera (HcLc) to human NOGO-A56 in an ELISA assay.

[2] = molecular target: T2, recombinantly expressed human NOGO-A (hNOGO) (human, UniProt Q9NQC3 586-785, limits assumed); test: SPR, Biacore3000; hNOGO amine-coupled to CM5 chip, antibody in solution
T2 sequence (looked up): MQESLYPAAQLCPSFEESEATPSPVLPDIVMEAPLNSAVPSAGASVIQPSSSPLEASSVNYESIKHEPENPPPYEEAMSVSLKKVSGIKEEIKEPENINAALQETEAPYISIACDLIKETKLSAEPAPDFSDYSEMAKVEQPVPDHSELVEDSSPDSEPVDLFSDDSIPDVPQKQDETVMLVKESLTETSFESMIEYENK
Experimental: The binding kinetics of the anti-NOGO monoclonal antibody (mAb) to recombinantly expressed human NOGO-A (hNOGO) was analysed using the Biacore3000 biosensor. The methodology was as followed:
hNOGO was immobilised to a CM5 chip by primary amine coupling using the Biacore Wizard program designed for targeted immobilisation levels. The CM5 sensor surface was activated by passing a solution of 50 mM N-hydroxy-succinimide (NHS) and 200 mM N-ethyl-N′-dimethylaminopropyl carbonide (EDC). Then using a 300 nM solution of hNOGO in 5 mM sodium acetate, pH5.0, a range of concentrations between 50-200 resonance units of hNOGO were immobilised. After immobilisation was complete any still activated esters were blocked by an injection of 1 M ethanolamine hydrochloride, pH8.5.
The H1L11 mAb (see example 8) was diluted down in HBS-EP (10 mM HEPES, pH 7.4, 150 mM NaCl, 3 mM EDTA, and 0.005% P-20 surfactant) and binding studies were carried out at concentrations ranging between 0.1-100 nM. For kinetic analysis a flowrate of 60 μl/minute was used, with no mass transfer effects seen. All concentrations were performed in duplicate, in a random order with buffer blanks included. Regeneration was achieved either by the single injection of a 15 μl pulse of 50 mM sodium hydroxide alone or the injection of 15 μl of 100 mM H₃PO₄, followed by a subsequent injection of 15 μl of 50 mM sodium hydroxide. […] All runs were referenced against a blanked sensor surface (one that had been activated and blocked as described earlier but had no addition of ligand). Analysis of binding was carried out using the BIAevaluation kinetic analysis software version 4.1. Biacore analysis of other antibodies of the invention essentially followed the same protocol as described herein.

rat NOGO-A = molecular target: T3, rat NOGO-A (rat, UniProt Q9JK11 173-975, limits assumed); test: SPR, Biacore; similar analysis using rat NOGO-A
T3 construct: Used in 'a similar analysis' by Biacore
T3 sequence (looked up): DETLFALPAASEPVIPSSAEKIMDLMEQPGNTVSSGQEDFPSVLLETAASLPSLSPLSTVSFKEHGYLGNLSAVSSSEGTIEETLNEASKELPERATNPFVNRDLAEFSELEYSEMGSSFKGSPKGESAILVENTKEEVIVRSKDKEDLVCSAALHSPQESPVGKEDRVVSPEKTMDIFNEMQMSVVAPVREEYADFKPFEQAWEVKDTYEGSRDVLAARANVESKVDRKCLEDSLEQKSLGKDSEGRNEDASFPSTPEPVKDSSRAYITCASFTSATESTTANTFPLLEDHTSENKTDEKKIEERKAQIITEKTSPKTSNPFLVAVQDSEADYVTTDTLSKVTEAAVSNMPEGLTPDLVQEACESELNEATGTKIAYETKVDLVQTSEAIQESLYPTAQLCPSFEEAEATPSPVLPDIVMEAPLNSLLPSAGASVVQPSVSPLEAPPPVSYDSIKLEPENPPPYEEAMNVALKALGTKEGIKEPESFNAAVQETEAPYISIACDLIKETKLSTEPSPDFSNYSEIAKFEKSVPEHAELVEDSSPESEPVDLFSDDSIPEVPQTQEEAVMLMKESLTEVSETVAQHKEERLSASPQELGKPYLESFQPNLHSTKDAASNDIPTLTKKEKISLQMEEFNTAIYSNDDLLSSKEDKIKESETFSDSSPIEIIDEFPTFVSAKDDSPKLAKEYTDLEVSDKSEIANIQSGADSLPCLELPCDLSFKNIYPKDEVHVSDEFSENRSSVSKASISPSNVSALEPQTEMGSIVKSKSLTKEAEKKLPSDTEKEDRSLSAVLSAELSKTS

B3: Anti-NOGO antibody 2A10/3 (mouse monoclonal) (antibody, V domains shown)
VH: QVQLQQPGTELVKPGASVKLSCKASGYTFTSYWMHWVKQRPGQGLEWIGNINPSNGGTNYNEKFKSKATLTVDKSSSTAYMQLSSLTSEDSAVYYCELGQGYWGQGTTLTVSS
VL: DIVITQDELSNPVTSGESVSISCRSSKSLLYKDGKTYLNWFLQRPGQSPQLLIYLMSTRASGVSDRFSGSGSGTDFTLEISRVKAEDVGVYYCQQLVEYPLTFGAGTKLELK
notes: Mouse hybridoma antibody; also called Mouse 2A10; 2A10-BR
Kd (rat NOGO-A): 1 nM
koff (rat NOGO-A): 0.00101 s⁻¹
kon (rat NOGO-A): 1.26e+06 M⁻¹ s⁻¹
Kd [2]: 0.8 nM
koff [2]: 0.00184 s⁻¹
kon [2]: 2.9e+06 M⁻¹ s⁻¹

B4: Anti-NOGO antibody 2C4/1 (mouse monoclonal) (antibody, V domains shown)
VH: EVQLVESGGGLVKPGGSLKLSCAASGFTFSCYAMSWVRQTPEKRLEWVASISDGGSYTYYPDNVKGRFTISRDNAKNNLYLQMSHLKSEDTAMYYCAKELLFDYWGQGTTLTVSS
VL: DVVMTQTPLSLPVSLGDQASISCRSSQSLVHSNGNTYLHWYLQKPGQSPKLLIYKVSNRFSGVPDRFSGSGSGTDFTLKISRVEAEDLGVYFCSQSTHVPLTFGAGTKLELK
notes: Mouse hybridoma antibody; also called Mouse 2C4
Kd (rat NOGO-A): 3.9 nM
koff (rat NOGO-A): 0.000533 s⁻¹
kon (rat NOGO-A): 162000 M⁻¹ s⁻¹
Kd [2]: 8 nM
koff [2]: 0.000644 s⁻¹
kon [2]: 80900 M⁻¹ s⁻¹

B5: Anti-NOGO antibody 15C3/3 (mouse monoclonal) (antibody, V domains shown)
VH: QVQLQQSGAELVKPGASVKISCKASGYAFSSYWMNWVKQRPGKGLEWIGQIYPGDGDTNYNGKFKGKATLTADKSSSTAYMQLSSLTSEDSAVYFCAVRFDYWGQGTTLTVSS
VL: DIVMTQAAPSVPVTPGESVSISCRSSKSLLHSNGNTYLYWFLQRPGQSPQLLIYRMSNLASGVPDRFSGSGSGTAFTLRISRVEAEDVGVYYCMQHLEYPLTFGAGTKLELK
notes: Mouse hybridoma antibody; also called Mouse 15C3
Kd (rat NOGO-A): 24.9 nM
koff (rat NOGO-A): 0.00087 s⁻¹
kon (rat NOGO-A): 46000 M⁻¹ s⁻¹
Kd [2]: 17.5 nM
koff [2]: 0.000828 s⁻¹
kon [2]: 40700 M⁻¹ s⁻¹

Results, then the binder that gave them:

EC50 [1]: 0.118 µg/mL
Kd [2]: 22.2 nM
koff [2]: 0.0215 s⁻¹
kon [2]: 1e+06 M⁻¹ s⁻¹
B1: Humanised anti-NOGO antibody H1L11 (antibody, V domains shown)
VH: QVQLVQSGAEVKKPGASVKVSCKASGYTFTSYWMHWVRQAPGQGLEWMGNINPSNGGTNYNEKFKSRVTMTRDTSTSTVYMELSSLRSEDTAVYYCELGQGYWGQGTTVTVSS
VL: DIVITQSPLSLPVTLGQPASISCRSSKSLLYKDGKTYLNWFQQRPGQSPQLLIYLMSTRASGVPDRFSGGGSGTDFTLKISRVEAEDVGVYYCQQLVEYPLTFGQGTKLEIK
notes: It was expressed transiently in CHO cells; also called H1l L11

EC50 [1]: 0.022 µg/mL
Kd [2]: 1.26 nM
koff [2]: 0.00249 s⁻¹
kon [2]: 2.23e+06 M⁻¹ s⁻¹
B2: Chimeric 2A10 (HcLc) (antibody, human IgG1, kappa, V domains shown)
VH: B3 VH with T108L, L109V
VL: DIVITQDELSNPVTSGESVSISCRSSKSLLYKDGKTYLNWFLQRPGQSPQLLIYLMSTRASGVSDRFSGSGSGTDFTLEISRVKAEDVGVYYCQQLVEYPLTFGAGTKLELKR
notes: Murine 2A10 V regions on human IgG1/k wild type C regions; also called chimaera of 2A10; the chimera
